Laboratory results published in patent US20220194999A1 (Janssen / Centocor, published 2022).

Biological target: T1, HLA-A*02:01 class I complex (conditional p*HLA*02:01, biotinylated heavy chain with beta2-microglobulin) (human, biotinylated heavy chain)
T1 construct: UV-labile peptide p* is cleaved and exchanged for the test peptide; also called HLA 2.1
Assay: UV peptide exchange, HLA class I ELISA, % of Pos peptide;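 further: Streptavidin-captured HLA complexes after exchange detected via HRP anti-human B2M antibody, absorbance read, colour scales with intact complex, normalized to exchange control peptide as 100%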
Description: The HLA class I ELISA is an enzyme immunoassay based on the detection of beta2-microglobulin (B2M) of (peptide-stabilized) HLA class I complexes. To this end streptavidin is bound onto polystyrene microtiter wells. After washing and blocking, HLA complex present in exchange reaction mixtures or ELISA controls is captured by the streptavidin on the microtiter plate via its biotinylated heavy chain. Non-bound material is removed by washing. Subsequently, horseradish peroxidase (HRP)-conjugated antibody to human B2M is added. […] In the latter case B2M is removed during the washing step. After removal of non-bound HRP conjugate by washing, a substrate solution is added to the wells. A colored product is formed in proportion to the amount of intact HLA complex present in the samples. After the reaction has been terminated by the addition of a stop solution, absorbance is measured in a microtiter plate reader. The absorbance is normalized to the absorbance of an exchange control peptide (represents 100%). Also, suboptimal HLA binding of peptides with a moderate to low affinity for HLA class I molecules can be detected by this ELISA technique
Coating wells of two NUNC MaxiSorp™ 96-well ELISA plates: only the contents of one coating buffer capsule were dissolved in 100 mL of distilled water (0.05 M carbonate-bicarbonate buffer, pH 9.6 at 25° C.). 46 μL of Streptavidin stock solution were added to 23 mL coating buffer. 100 μL of the Streptavidin stock solution were added to all wells. Each microtiter plate was covered with an adhesive seal and incubated overnight at room temperature (18-25° C.).

Binder | Average % | Exch I (%) | Exch II (%)
SLTCTYFPV (also called M212) [TP53_S127F6 mimic peptide SLTCTYFPV] | 95.5% | 93.7% | 97.2%
SLTCTYFPL (also called M214) [TP53_S127F8 mimic peptide SLTCTYFPL] | 70.8% | 69.9% | 71.6%
